The values below come from paper PMC8613289.

Common to all, as to assay: TurboID proximity biotinylation, streptavidin pull-down, MS-based proteomics
Conditions in all cases: biotin for 1 h; n = 5; read off a plot

The target of assay [1] is NDC1.
Assay [2] deals with AHCTF1.
Assay [3] addresses NUPL2.
Assay [4] concerns the target Nup50 (UniProt Q9UKX7).
The target in assay [5] is Nup214 (UniProt P35658).
Assay [6] addresses RANGAP1.
Assay [7] deals with RanBP2 (UniProt P49792).

For “EphA2-V5-TurboID (wild-type EphA2) (from UniProt P29317) NLS1 (RRR>AAA in the juxtamembrane stretch …, as read from Fig. 3a; no residue numbers printed)”, the other: Student's T-test Difference WT NLS1 in assay [1] is -1; in assay [2], 0.5; in assay [3], -1.6; in assay [4], 2.5; in assay [5], 2; in assay [6], 1.8. The substance also gave an other: Student's T-test Difference WT NLS1 in assay [7] of 1.5.

With “EphA2-V5-TurboID (wild-type EphA2) (from UniProt P29317) NLS2 (two K>A in the stretch …, as read from Fig. 3a; no residue numbers printed)”, the other: Student's T-test Difference WT NLS2 in assay [2] was determined as 1.3; in assay [4], 3.1; in assay [5] it was 2.9; in assay [6] it was 2.6; in assay [7], 2.1.
